According to IntAct's records for PubMed 14681217:

B1: Integrin beta-7 (Homo sapiens), P26010 (parent)
chain: MVALPMVLVLLLVLSRGESELDAKIPSTGDATEWRNPHLSMLGSCQPAPSCQKCILSHPSCAWCKQLNFTASGEAEARRCARREELLARGCPLEELEEPRGQQEVLQDQPLSQGARGEGATQLAPQRVRVTLRPGEPQQLQVRFLRAEGYPVDLYYLMDLSYSMKDDLERVRQLGHALLVRLQEVTHSVRIGFGSFVDKTVLPFVSTVPSKLRHPCPTRLERCQSPFSFHHVLSLTGDAQAFEREVGRQSVSGNLDSPEGGFDAILQAALCQEQIGWRNVSRLLVFTSDDTFHTAGDGKLGGIFMPSDGHCHLDSNGLYSRSTEFDYPSVGQVAQALSAANIQPIFAVTSAALPVYQELSKLIPKSAVGELSEDSSNVVQLIMDAYNSLSSTVTLEHSSLPPGVHISYESQCEGPEKREGKAEDRGQCNHVRINQTVTFWVSLQATHCLPEPHLLRLRALGFSEELIVELHTLCDCNCSDTQPQAPHCSDGQGHLQCGVCSCAPGRLGRLCECSVAELSSPDLESGCRAPNGTGPLCSGKGHCQCGRCSCSGQSSGHLCECDDASCERHEGILCGGFGRCQCGVCHCHANRTGRACECSGDMDSCISPEGGLCSGHGRCKCNRCQCLDGYYGALCDQCPGCKTPCERHRDCAECGAFRTGPLATNCSTACAHTNVTLALAPILDDGWCKERTLDNQLFFFLVEDDARGTVVLRVRPQEKGADHTQAIVLGCVGGIVAVGLGLVLAYRLSVEIYDRREYSRFEKEQQQLNWKQDSNPLYKSAITTTINPRFQEADSPTL

Variants of: B1
Settings: with ita4_human ITGA4, P13612
Sequence of ita4_human ITGA4, P13612 (P13612 whole entry): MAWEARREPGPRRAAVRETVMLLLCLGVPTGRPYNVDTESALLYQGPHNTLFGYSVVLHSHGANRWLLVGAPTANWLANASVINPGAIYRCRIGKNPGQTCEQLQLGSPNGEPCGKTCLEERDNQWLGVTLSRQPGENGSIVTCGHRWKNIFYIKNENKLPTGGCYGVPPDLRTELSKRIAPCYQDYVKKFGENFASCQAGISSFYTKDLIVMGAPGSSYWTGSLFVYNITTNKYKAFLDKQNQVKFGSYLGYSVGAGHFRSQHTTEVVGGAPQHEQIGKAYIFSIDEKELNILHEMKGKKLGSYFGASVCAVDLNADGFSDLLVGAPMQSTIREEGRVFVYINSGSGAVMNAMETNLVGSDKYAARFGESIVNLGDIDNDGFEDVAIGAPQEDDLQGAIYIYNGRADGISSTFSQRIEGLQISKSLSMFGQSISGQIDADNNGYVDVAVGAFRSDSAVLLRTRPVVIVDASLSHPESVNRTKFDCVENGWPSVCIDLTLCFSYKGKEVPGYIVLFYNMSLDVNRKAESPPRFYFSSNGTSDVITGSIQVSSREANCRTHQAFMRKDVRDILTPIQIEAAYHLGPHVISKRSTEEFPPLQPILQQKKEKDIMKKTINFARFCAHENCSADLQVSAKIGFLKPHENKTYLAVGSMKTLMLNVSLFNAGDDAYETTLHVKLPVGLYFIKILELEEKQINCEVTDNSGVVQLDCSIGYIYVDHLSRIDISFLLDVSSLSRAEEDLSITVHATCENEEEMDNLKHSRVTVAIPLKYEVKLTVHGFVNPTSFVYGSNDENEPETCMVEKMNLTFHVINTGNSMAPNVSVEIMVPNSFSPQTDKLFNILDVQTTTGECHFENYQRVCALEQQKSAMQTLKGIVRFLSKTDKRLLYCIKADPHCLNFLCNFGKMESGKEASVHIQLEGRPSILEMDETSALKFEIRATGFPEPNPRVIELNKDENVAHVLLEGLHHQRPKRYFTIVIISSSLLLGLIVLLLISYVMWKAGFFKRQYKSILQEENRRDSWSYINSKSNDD

effect of a mutation on the interaction | Variant
decreasing interaction | G730I
decreasing interaction | G734I
